Measured values taken from article PMC10648341, “Cloning and Functional Characterization of NADPH-Cytochrome P450 Reductases in Aconitum vilmorinianum” (Molecules, 2023).

Assays:
CYP76AH1 = biological target: T1, CYP76AH1 (Salvia miltiorrhiza, UniProt S4UX02); assay: HPLC of yeast extracts, ferruginol formation; format: cell-based; conditions: miltiradiene made by host yeast YJ14; co-expressed AvCPR1, AvCPR2 or SmCPR1
T1 construct: ORF in pESC-His, co-expressed with AvCPR1 (also AvCPR2 or SmCPR1) in miltiradiene-producing yeast YJ14; with NADPH--cytochrome P450 reductase 1 (Aconitum vilmorinianum)
T1 sequence (S4UX02 1-495): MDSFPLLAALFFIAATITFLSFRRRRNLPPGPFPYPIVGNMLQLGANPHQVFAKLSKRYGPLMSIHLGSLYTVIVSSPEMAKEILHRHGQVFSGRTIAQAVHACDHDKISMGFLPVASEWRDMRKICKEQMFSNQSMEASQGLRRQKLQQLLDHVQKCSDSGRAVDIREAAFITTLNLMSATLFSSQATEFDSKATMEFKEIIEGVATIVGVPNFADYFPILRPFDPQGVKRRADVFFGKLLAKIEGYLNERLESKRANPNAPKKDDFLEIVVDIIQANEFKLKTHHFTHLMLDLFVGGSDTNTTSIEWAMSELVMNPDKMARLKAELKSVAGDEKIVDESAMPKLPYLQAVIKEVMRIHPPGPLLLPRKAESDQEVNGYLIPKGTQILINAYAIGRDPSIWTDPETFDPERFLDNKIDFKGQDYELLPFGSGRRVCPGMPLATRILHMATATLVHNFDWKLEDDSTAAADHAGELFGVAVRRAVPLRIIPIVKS

cytochrome c = cytochrome c (UniProt P00004)
Sequence of cytochrome c (P00004 whole entry): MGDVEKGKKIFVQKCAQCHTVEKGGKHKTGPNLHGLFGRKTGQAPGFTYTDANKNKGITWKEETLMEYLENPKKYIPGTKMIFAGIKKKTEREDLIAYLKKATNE

Compound | HPLC of yeast extracts, ferruginol formation (CYP76AH1) | Km for cytochrome c: steady-state reduction of cytochrome c (0-200 μM) by 4 μg recombinant enzyme with 100 μmol/L NADPH, absorbance at 550 nm, 100 mM Tris-HCl, 0.1 mM EDTA, pH 7.4, 25 °C (cytochrome c)
CC(C)c1cc2c(cc1O)[C@@]1(C)CCCC(C)(C)[C@@H]1CC2 [ferruginol] | transgenic strains co-expressing AvCPRs or SmCPR with CYP76AH1 produced ferruginol | –
truncated AvCPR1 (NADPH-cytochrome P450 reductase 1 of Aconitum vilmorinianum, without the N-terminal membrane-anchoring region) (enzyme) | – | 344 μmol·L^−1
truncated AvCPR2 (NADPH-cytochrome P450 reductase 2 of Aconitum vilmorinianum, without the N-terminal membrane-anchoring region) (enzyme) | – | 78.1 μmol·L^−1
